According to paper PMC3626704 (BMC Biochemistry, 2013):

T1: 6-Helix-Fd (HIV-1 gp41 (HXB2-like, printed sequence), stabilised)
T1 construct: also called post-fusion six-helix bundle mimic
T1 chain: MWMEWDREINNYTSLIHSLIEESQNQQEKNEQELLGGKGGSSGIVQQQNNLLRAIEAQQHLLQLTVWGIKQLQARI


Assays:
5-Helix = biological target: T2, 5-Helix (HIV-1 group M subtype B, HXB2 (gp41 …, stabilised)); experiment: ELISA; settings: both partners purified
T2 construct: also called designed protein based on HIV-1 gp41

6-Helix-Fd = biological target: T1, 6-Helix-Fd; experiment: ELISA; settings: both partners purified

| Binder | IC50 (5-Helix) [nM] | IC50 (6-Helix-Fd) [nM] |
| --- | --- | --- |
| D5 scFv, purified monovalent (scFv, V domains shown) VH: QVQLVQSGAEVRKPGASVKVSCKASGDTFSSYAISWVRQAPGQGLEWMGGIIPIFGTANYAQAFQGRVTITANESTSTAYMELSSLRSEDTAIYYCARDNPTLLGSDYWGAGTLVTVSS VL: DIQMTQSPSTLSASIGDRVTITCRASEGIYHWLAWYQQKPGKAPKLLIYKASSLASGAPSRFSGSGSGTDFTLTISSLQPDDFATYYCQQYSNYPLTFGGGTKLEIK | 7.3 | 290 |
| 25A12 scFv, purified monovalent (scFv, V domains shown) VH: QVQLVQSGAEVRKPGASVKVSCKASGDTFSSYAISWVRQAPGQGLEWMGGIIPIFGTANYAQAFQGRVTITANESTSTAYMELSSLRSEDTAIYYCARDNPTLLGSDYWGAGTLVTVSS VL: DIQMTQSPSTLSASIGDRVTITCRASEGIHRYLAWYQQKPGKAPKLLIYHASRLASGAPSRFSGSGSGTDFTLTISSLQPDDFATYYCQQRANYPYTFGGGTKLEIK | 34 | 280 |
| 25C10 scFv, purified monovalent (scFv, V domains shown) VH: QVQLVQSGAEVRKPGASVKVSCKASGDTFSSYAISWVRQAPGQGLEWMGGIIPIFGTANYAQAFQGRVTITANESTSTAYMELSSLRSEDTAIYYCARDNPTLLGSDYWGAGTLVTVSS VL: DIQMTQSPSTLSASIGDRVTITCRASENIYGNLAWYQQKPGKAPKLLISRASRLASGAPSRFSGSGSGTDFTLTISSLQPDDFATYYCQQRYTYPLTFGGGTKLEIK | 56 | – |
| 25A10 scFv, purified monovalent (scFv, V domains shown) VH: QVQLVQSGAEVRKPGASVKVSCKASGDTFSSYAISWVRQAPGQGLEWMGGIIPIFGTANYAQAFQGRVTITANESTSTAYMELSSLRSEDTAIYYCARDNPTLLGSDYWGAGTLVTVSS VL: DIQMTQSPSTLSASIGDRVTITCRASESISHNLAWYQQKPGKAPKLLISNASRLASGAPSRFSGSGSGTDFTLTISSLQPDDFATYYCQQYSNYPLTFGGGTKLEIK | 5.4 | ~500 |
| 25B6 scFv, purified monovalent (scFv, V domains shown) VH: QVQLVQSGAEVRKPGASVKVSCKASGDTFSSYAISWVRQAPGQGLEWMGGIIPIFGTANYAQAFQGRVTITANESTSTAYMELSSLRSEDTAIYYCARDNPTLLGSDYWGAGTLVTVSS VL: DIQMTQSPSTLSASIGDRVTITCRASENIRSGLAWYQQKPGKAPKLLIYRASRLASGAPSRFSGSGSGTDFTLTISSLQPDDFATYYCQQYDDYPHTFGGGTKLEIK | 0.6 | 94 |
